Molecular target: T1, murine CD47 (murine, UniProt Q61735 19-303)
T1 sequence (looked up): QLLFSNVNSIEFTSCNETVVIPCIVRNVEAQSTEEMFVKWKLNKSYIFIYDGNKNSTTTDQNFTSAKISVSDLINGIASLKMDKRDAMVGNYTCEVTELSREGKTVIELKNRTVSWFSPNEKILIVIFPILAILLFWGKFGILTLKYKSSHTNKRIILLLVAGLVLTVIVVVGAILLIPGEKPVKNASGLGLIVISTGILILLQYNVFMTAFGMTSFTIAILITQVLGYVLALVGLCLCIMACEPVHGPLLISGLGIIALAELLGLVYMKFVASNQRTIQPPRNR
Experiment: cell-based or functional assay

B1: anti-mCD47 nanobody-ultraID (murine CD47) (other)
chain: QVQLVESGGGLVEPGGSLRLSCAASGIIFKINDMGWYRQAPGKRREWVAASTGGDEAIYRDSVKDRFTISRDAKNSVFLQMNSLKPEDTAVYYCTAVISTDRDGTEWRRYWGQGTQVTVSSGGLPETGGGGGSGGGSGGGSMFKNLIWLKEVDSTQERLKEWNVSYGTALVADRQTKGRGGPGRKWLSQEGGLYFSFLLNPKEFENLLQLPLVLGLSVSEALEEITEIPFSLKWPNDVYFQEKKVSGVLCELSKDKLIVGIGINVNQREIPEEIKDRATTLYEITGKDWDRKEVLLKVLKRISENLKKFKEK
  biotin labeling of B16 cells, fold over non-targeted ultraID at 1 nM: 10 fold
  streptavidin-PE signal on B16 cells, enzyme-based labeling relative to binding by the biotinylated nanobody construct alone: ≥ 20 fold
